Test results as given in publication PMC2814896.

B1: OCT2 (hOCT2) (Homo sapiens) (protein)
chain: MPTTVDDVLEHGGEFHFFQKQMFFLLALLSATFAPIYVGIVFLGFTPDHRCRSPGVAELSLRCGWSPAEELNYTVPGPGPAGEASPRQCRRYEVDWNQSTFDCVDPLASLDTNRSRLPLGPCRDGWVYETPGSSIVTEFNLVCANSWMLDLFQSSVNVGFFIGSMSIGYIADRFGRKLCLLTTVLINAAAGVLMAISPTYTWMLIFRLIQGLVSKAGWLIGYILITEFVGRRYRRTVGIFYQVAYTVGLLVLAGVAYALPHWRWLQFTVSLPNFFFLLYYWCIPESPRWLISQNKNAEAMRIIKHIAKKNGKSLPASLQRLRLEEETGKKLNPSFLDLVRTPQIRKHTMILMYNWFTSSVLYQGLIMHMGLAGDNIYLDFFYSALVEFPAAFMIILTIDRIGRRYPWAASNMVAGAACLASVFIPGDLQWLKIIISCLGRMGITMAYEIVCLVNAELYPTFIRNLGVHICSSMCDIGGIITPFLVYRLTNIWLELPLMVFGVLGLVAGGLVLLLPETKGKALPETIEEAENMQRPRKNKEKMIYLQVQKLDIPLN
B2: OCT1 (hOCT1) (Homo sapiens) (protein)
chain: MPTVDDILEQVGESGWFQKQAFLILCLLSAAFAPICVGIVFLGFTPDHHCQSPGVAELSQRCGWSPAEELNYTVPGLGPAGEAFLGQCRRYEVDWNQSALSCVDPLASLATNRSHLPLGPCQDGWVYDTPGSSIVTEFNLVCADSWKLDLFQSCLNAGFLFGSLGVGYFADRFGRKLCLLGTVLVNAVSGVLMAFSPNYMSMLLFRLLQGLVSKGNWMAGYTLITEFVGSGSRRTVAIMYQMAFTVGLVALTGLAYALPHWRWLQLAVSLPTFLFLLYYWCVPESPRWLLSQKRNTEAIKIMDHIAQKNGKLPPADLKMLSLEEDVTEKLSPSFADLFRTPRLRKRTFILMYLWFTDSVLYQGLILHMGATSGNLYLDFLYSALVEIPGAFIALITIDRVGRIYPMAMSNLLAGAACLVMIFISPDLHWLNIIIMCVGRMGITIAIQMICLVNAELYPTFVRNLGVMVCSSLCDIGGIITPFIVFRLREVWQALPLILFAVLGLLAAGVTLLLPETKGVALPETMKDAENLGRKAKPKENTIYLKVQTSEPSGT

Legend:
[1] = substrate: N=C(N)NCCCCN; assay: radiolabeled uptake in hOCT2-HEK293 vs wild-type HEK293 cells; type: cell-based, Homo sapiens
[2] = substrate: N=C(N)NCCCCN; assay: saturable uptake in hOCT1-HEK cells; type: cell-based, Homo sapiens

Protein | Km [1] | Km [2]
B1 | 2 mM | 
B2 |  | 30 mM
